According to paper PMC10350915, “Development of a New Class of CXCR4-Targeting Radioligands Based on the Endogenous Antagonist EPI-X4 for Oncological Applications” (Journal of Medicinal Chemistry, 2023):
Square brackets hold non-standard residues; d marks the D form. Peptide text beside a SMILES is read from it. * marks the point of attachment. DOTA = O=C(O)CN1CCN(CC(=O)O)CCN(CC(=O)*)CCN(CC(=O)O)CC1

Experiments:
[1] = test system: Jurkat xenografts; experiment: in vivo; settings: female, athymic nude-Foxn1^nu/Foxn1^+, mouse, iv, 200 pmol, 1 h
Protocol: (§1) Quantification of the total body distribution of ^177Lu-7 and ^68Ga-7 was performed in Jurkat xenografted mice after intravenous injection of 100 μL, 200 pmol, with […], respectively (n = 5). The mice were sacrificed at 1 h p.i. ^177Lu-7 and ^68Ga-7 accumulated mainly in the kidneys (83.1 ± 25.5 and 75.6 ± 30.3%IA/g, respectively, p = 0.59), liver (5.19 ± 1.08 and 4.08 ± 1.05%IA/g, respectively, p = 0.07) and tumor (2.25 ± 0.43 and 2.24 ± 0.57%IA/g, respectively, p = 0.97), as already seen in the SPECT/CT and PET/CT images (Figures 6 and 7). Uptake in the tumor was lower than for the kidneys and liver but higher as in all other tissues investigated. […] The uptake seen in the liver might be attributed, at least partially, to the fact that CXCR4 is constitutively expressed in the sinusoidal endothelial cells of the murine liver[38] or could be related to another yet-unknown mechanism previously reported for other CXCR4-targeting probes.[11],[39] Regretfully, there are no direct measurements available for the affinity of ^177Lu-7 with the murine CXCR4 (mCXCR4). This is relevant for assessing its total body distribution. However, we have shown that EPI-X4 and EPI-X4 derivatives are active in mouse models of inflammatory diseases[22],[25] and cancer.[40] More specifically, EPI-X4 derivatives such as JM#21 reduced immune cell influx in lungs of mice suffering from allergic asthma or reduced skin inflammation in a murine model of atopic dermatitis upon topical administration. […] Thus, we speculate that the DOTA conjugate of JM#173 (ligand-7) also cross-reacts to the mCXCR4. […] Last, but not the least, the uptake in the kidneys was predominant, and given the highly hydrophilic character of ^177Lu-7, is attributed, at least partially, to its excretion via this path.
(§2) The experimental protocol involving animals was approved by the Veterinary Office (Department of Health) of the Cantonal Basel-Stadt (Approval No. 30515) in accordance with the Swiss regulations for animal treatment. Female athymic nude-Foxn1^nu/Foxn1^+ mice (Envigo, The Netherlands), 4–6 weeks old, were injected subcutaneously with 10^7 Jurkat cells in a 200 μL (1:1) mixture of PBS and Matrigel (CorningMatrigelMembrane matrix, Fischer Scientific, Germany) on the right shoulder. The tumors were allowed to grow for 3–4 weeks before commencement of the experiments.
(§3) Quantitative biodistribution studies of ^177Lu-7 (100 μL, 200 pmol, 0.8–1 MBq) and ^68Ga-7 (100 μL, 200 pmol, 2–3 MBq) were performed after intravenous injection of the radioligand via the tail vein on Jurkat xenografts. […] 1 h after injection of the radioligand, mice were sacrificed, organs of interest and blood were collected, rinsed of excess blood, blotted dry, weighed, and counted in a γ-counter. The samples were counted against a suitable diluted aliquot of the injected solution as the standard and the results are expressed as percentage injected activity per gram of tissue (%IA/g). Statistical analysis between selected organs was performed by Welch’s t-test and p values <0.05 were considered statistically significant.

[2] = in vivo; settings: female, athymic nude-Foxn1^nu/Foxn1^+, mouse, iv, 200 pmol, total radioactivity
Protocol: as §1, §2, §3

CC[C@@H](C)[C@@H](N)C(=O)N[C@@H](CC(C)C)C(=O)N[C@@H](CCCNC(=N)N)C(=O)N[C@@H](Cc1c[nH]c2ccccc12)C(=O)N[C@@H](CO)C(=O)N[C@@H](CCCNC(=N)N)C(=O)N[C@@H](CCCCN)C(=O)N[C@@H](CCCCNC(=O)CN1CCN(CC(=O)O)CCN(CC(=O)O)CCN(CC(=O)O)CC1)C(N)=O [^177Lu-7, metal not drawn] (H-[dI]LRWSRKK(DOTA)-NH2; N-terminus assumed)
uptake in adrenal [1]: 1.09 ± 0.42 % IA/g
tissue uptake at 1 h ([2]; uptake in blood): 0.42 ± 0.12 %ID/g
tissue uptake at 1 h ([2]; uptake in femur): 1.06 ± 0.28 %ID/g
tissue uptake at 1 h ([2]; uptake in heart): 0.21 ± 0.05 %ID/g
tissue uptake at 1 h ([2]; uptake in intestine): 0.37 ± 0.1 %ID/g
tissue uptake at 1 h ([2]; uptake in kidney): 83.1 ± 25.5 %ID/g
tissue uptake at 1 h ([2]; uptake in liver): 5.19 ± 1.08 %ID/g
tissue uptake at 1 h ([2]; uptake in muscle): 0.27 ± 0.14 %ID/g
tissue uptake at 1 h ([2]; uptake in pancreas): 0.14 ± 0.02 %ID/g
tissue uptake at 1 h ([2]; uptake in spleen): 0.81 ± 0.16 %ID/g
tissue uptake at 1 h ([2]; uptake in stomach): 0.3 ± 0.06 %ID/g
tissue uptake at 1 h ([2]; uptake in tumor): 2.25 ± 0.43 %ID/g
